From patent US20110144007A1 (IPSEN PHARMA S A S, published 2011) come the findings set out here.

Positions count from the first letter of the chain named. Non-standard residues stand in square brackets, D forms with d. No end group written: not given here. *: point of attachment. Psu = N-propylsuccinimide on Cys S (Cys alkylated with N-propylmaleimide), CCCN1C(=O)CC(*)C1=O; Myristoyl = CCCCCCCCCCCCCC(=O)*; Ac6c = NC1(C(=O)O)CCCCC1; Nle = CCCC[C@H](N)C(=O)O; Orn = NCCC[C@H](N)C(=O)O; Ac5c = NC1(C(=O)O)CCCC1; Aib = CC(C)(N)C(=O)O

T1: human recombinant GIP receptor (human, UniProt P48546 22-466)
T1 construct: whole, on cells; Assayed as washed membrane preparations of CHO-K1 clonal cells expressing the receptor; also called hGIP receptor
T1 sequence (looked up): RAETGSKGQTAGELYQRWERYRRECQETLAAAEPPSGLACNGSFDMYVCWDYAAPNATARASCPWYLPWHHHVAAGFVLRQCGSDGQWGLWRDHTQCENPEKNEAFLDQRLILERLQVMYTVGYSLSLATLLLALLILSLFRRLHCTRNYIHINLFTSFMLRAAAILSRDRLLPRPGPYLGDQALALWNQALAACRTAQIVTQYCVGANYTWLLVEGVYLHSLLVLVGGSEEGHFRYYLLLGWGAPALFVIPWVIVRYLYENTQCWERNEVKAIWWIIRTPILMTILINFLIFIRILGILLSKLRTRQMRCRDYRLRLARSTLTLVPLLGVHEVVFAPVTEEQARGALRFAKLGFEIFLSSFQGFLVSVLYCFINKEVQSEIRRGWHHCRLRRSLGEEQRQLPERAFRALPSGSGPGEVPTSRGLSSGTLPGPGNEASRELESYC

B1: (A6c^11, 14, 41)hGIP(1-42)-OH (peptide)
peptide: YAEGTFISDYXIAXDKIHQQDFVNWLLAQKGKKNDWKHNIXQ
modifications: A6c (1-amino-1-cyclohexanecarboxylic acid) at 11, 14 and 41; C-terminal free acid
notes: Synthetic analogue of human GIP
B2: (A5c^11, 41, Cys^33)hGIP(1-42)-NH2 (peptide)
peptide: B1 peptide with X14M, K33C
modifications: A5c at 11 and 41; C-terminal amide
notes: Synthetic analogue of human GIP with Cys at position 33
B3: [A5c^11,41, Cys^32(succinimide-N-20K PEG)]hGIP(1-42)-NH2 (peptide)
peptide: B1 peptide with X14M, K32C
modifications: A5c at 11 and 41; Cys(succinimide-N-20K PEG) at 32; C-terminal amide
notes: Synthetic PEGylated analogue of human GIP
B4: (A5c^11, 41, Cys^32)hGIP(1-42)-NH2 (peptide)
peptide: B1 peptide with X14M, K32C
modifications: A5c at 11 and 41; C-terminal amide
notes: Synthetic analogue of human GIP with Cys at position 32
B5: (Aib^13, Nle^14, Phe^43)hGIP(1-43)-OH (peptide)
peptide: YAEGTFISDYSI[Aib][Nle]DKIHQQDFVNWLLAQKGKKNDWKHNITQF-OH
notes: Synthetic analogue of human GIP with an added Phe at position 43
B6: (A5c^11)hGIP(1-30)-NH2 (peptide)
peptide: YAEGTFISDYXIAMDKIHQQDFVNWLLAQK
modifications: A5c at 11; C-terminal amide
notes: Synthetic truncated analogue of human GIP
B7: (A5c^11, 14)hGIP(1-30)-NH2 (peptide)
peptide: B6 peptide with M14X
modifications: A5c at 11 and 14; C-terminal amide
notes: as for B6
B8: (A5c^11, His^31)hGIP(1-31)-NH2 (peptide)
peptide: YAEGTFISDYXIAMDKIHQQDFVNWLLAQKH
modifications: A5c at 11; C-terminal amide
notes: Synthetic truncated analogue of human GIP with His at position 31
B9: [A5c^11, Lys^43(N-C(O)-(CH2)10-CH3)]hGIP(1-43)-OH (peptide)
peptide: YAEGTFISDYXIAMDKIHQQDFVNWLLAQKGKKNDWKHNITQK
modifications: A5c at 11; Lys(N-C(O)-(CH2)10-CH3) at 43; C-terminal free acid
notes: Synthetic acylated analogue of human GIP
B10: [A5c^11, Orn^33(N-C(O)-(CH2)10-CH3), His^43]hGIP(1-43)-OH (peptide)
peptide: B9 peptide with K33X, K43H
modifications: A5c at 11; Orn(N-C(O)-(CH2)10-CH3) at 33; C-terminal free acid
notes: Synthetic acylated analogue of human GIP with an added His at position 43
B11: [A5c^11,41, Cys^43(succinimide-N-30K PEG)]hGIP(1-43)-NH2 (peptide)
peptide: B9 peptide with T41X, K43C
modifications: A5c at 11 and 41; Cys(succinimide-N-30K PEG) at 43; C-terminal amide
notes: as for B3
B12: [A5c^11, Orn^33(N-C(O)-(CH2)14-CH3), His^43]hGIP(1-43)-OH (peptide)
peptide: B9 peptide with K33X, K43H
modifications: A5c at 11; Orn(N-C(O)-(CH2)14-CH3) at 33; C-terminal free acid
notes: as for B9
B13: (A5c^11, 41, Cys^43)hGIP(1-43)-NH2 (peptide)
peptide: B9 peptide with T41X, K43C
modifications: A5c at 11 and 41; C-terminal amide
notes: Synthetic analogue of human GIP with an added Cys at position 43
B14: (A5c^11, Nle^14, His^43)hGIP(1-43)-OH (peptide)
peptide: B9 peptide with M14X, K43H
modifications: A5c at 11; Nle at 14; C-terminal free acid
notes: Synthetic analogue of human GIP with an added His at position 43
B15: (A5c^11, 14, His^43)hGIP(1-43)-OH (peptide)
peptide: B9 peptide with M14X, K43H
modifications: A5c at 11 and 14; C-terminal free acid
notes: as for B14
B16: [A5c^11, Lys^43(N-C(O)-(CH2)14-CH3)]hGIP(1-43)-OH (peptide)
peptide: B9 peptide
modifications: A5c at 11; Lys(N-C(O)-(CH2)14-CH3) at 43; C-terminal free acid
notes: as for B9
B17: [A5c^11, Orn^32(N-C(O)-(CH2)14-CH3), His^43]hGIP(1-43)-OH (peptide)
peptide: B9 peptide with K32X, K43H
modifications: A5c at 11; Orn(N-C(O)-(CH2)14-CH3) at 32; C-terminal free acid
notes: as for B9
B18: [A5c^11, Orn^32(N-C(O)-(CH2)10-CH3), His^43]hGIP(1-43)-OH (peptide)
peptide: B9 peptide with K32X, K43H
modifications: A5c at 11; Orn(N-C(O)-(CH2)10-CH3) at 32; C-terminal free acid
notes: as for B10
B19: [A5c^11,41, Cys^43(succinimide-N-20K PEG)]hGIP(1-43)-NH2 (peptide)
peptide: B9 peptide with T41X, K43C
modifications: A5c at 11 and 41; Cys(succinimide-N-20K PEG) at 43; C-terminal amide
notes: as for B3
B20: (Aib^13, Asp^43)hGIP(1-43)-NH2 (peptide)
peptide: B9 peptide with X11S, A13X, K43D
modifications: Aib (alpha-aminoisobutyric acid) at 13; C-terminal amide
notes: Synthetic analogue of human GIP with an added Asp at position 43
B21: (A5c^11, His^43)hGIP(1-43)-OH (peptide)
peptide: B9 peptide with K43H
modifications: A5c at 11; C-terminal free acid
notes: as for B14
B22: (A5c^11, Thr^43)hGIP(1-43)-OH (peptide)
peptide: B9 peptide with K43T
modifications: A5c at 11; C-terminal free acid
notes: Synthetic analogue of human GIP with an added Thr at position 43
B23: (A5c^11, Ala^43)hGIP(1-43)-OH (peptide)
peptide: B9 peptide with K43A
modifications: A5c at 11; C-terminal free acid
notes: Synthetic analogue of human GIP with an added Ala at position 43
B24: (Aib^13, Trp^43)hGIP(1-43)-OH (peptide)
peptide: B9 peptide with X11S, A13X, K43W
modifications: Aib at 13; C-terminal free acid
notes: Synthetic analogue of human GIP with an added Trp at position 43
B25: (A5c^11, Asn^43)hGIP(1-43)-OH (peptide)
peptide: B9 peptide with K43N
modifications: A5c at 11; C-terminal free acid
notes: Synthetic analogue of human GIP with an added Asn at position 43

This test addresses T1, human recombinant GIP receptor. The experiment in a line: displacement of [125I]GIP from membranes of CHO-K1 cells expressing human recombinant GIP receptor.
In general, Ki refers to the equilibrium dissociation constant of an inhibitor or competing ligand from its target. YAEGTF[Ac6c]SDYSIAMDKIHQQDFVNWLLAQKGKKN[Orn](Myristoyl)WKHNITQ-OH (Synthetic analogue of human GIP) [[A6c^7, Orn^35(N-C(O)-(CH2)12-CH3)]hGIP(1-42)-OH]: the Ki was determined as 10.3 nM.

As for YAEGTF[Ac6c]SDYSIA[Nle]DKIHQQDFVNWLLAQKGKKNDWKHNI[Ac6c]Q-OH (Synthetic analogue of human GIP) [(A6c^7, 41, Nle^14)hGIP(1-42)-OH], the Ki was 26.1 nM.

With B1, the Ki is 4.72 nM.

YAEGTFISDYXIAMDKIHQQDFVNWLLAQKGKKNDWKHNXTQ (A5c at 11 and 40; C-terminal free acid, Synthetic analogue of human GIP) [(A5c^11, 40)hGIP(1-42)-OH]: the Ki was 0.62 nM.

In the case of YAEGTFISDYXIAXDKIHQQDFVNWLLAQKGKKNDWKHNXTQ (A6c at 11, 14 and 40; C-terminal free acid, Synthetic analogue of human GIP) [(A6c^11, 14, 40)hGIP(1-42)-OH], the Ki is 1.3 nM.

With YAEGTFISDYXIAMDKIHQQDFVNWLLAQKGKKNDWKHNIXQ (A5c (1-amino-1-cyclopentanecarboxylic acid) at 11 and 41; C-terminal free acid, Synthetic analogue of human GIP) [(A5c^11, 41)hGIP(1-42)-OH], the Ki was determined as 0.12 nM.

With YAEGTFISDYSIXMDKIHQQDFVNWLLAQKGKKNDWKHNXTQ (Aib at 13; A5c at 40; C-terminal free acid, Synthetic analogue of human GIP) [(Aib^13, A5c^40)hGIP(1-42)-OH], the Ki is 5.74 nM.

In the case of B2, the Ki was determined as 1.05 nM.

For B3, the inhibition constant Ki worked out at 0.7 nM.

On to B4, for which the Ki came out at 0.9 nM.

Take B5: the Ki came to 3.15 nM.

Take B6: the Ki was 0.82 nM.

Regarding B7, the Ki turned out to be 0.78 nM.

Turning to YAEGTFISDYSI[Aib][Nle]DKIHQQDFVNWLLAQKGKKNDWKHN[Ac5c]TQ-OH (Synthetic analogue of human GIP) [(Aib^13, Nle^14, A5c^40)hGIP(1-42)-OH], the Ki was 0.23 nM.

Consider B8, for which the Ki came to 0.44 nM.

Take YAEGTF[Ac6c]SDYSIAMDKIHQQDFVNWLLAQKGKKNDWKHNI[Ac6c]Q-OH (Synthetic analogue of human GIP) [(A6c^7, 41)hGIP(1-42)-OH]: the Ki is 8.79 nM.

As for YAEGTF[Ac6c]SDYSIAMDKIHQQDFVNWLLAQKGKKNDWKHNITC(Psu)-OH (Synthetic analogue of human GIP) [[A6c^7, Cys(Psu)^42]hGIP(1-42)-OH], the Ki came out at 30.4 nM.

B9: the Ki stood at 0.83 nM.

As for B10, the Ki is 9.1 nM.

For YAEGTFISDYXIAMDKIHQQDFVNWLLAQKGKKNDWKHNITQX (A5c at 11; Ado (12-aminododecanoic acid) at 43; C-terminal free acid, Synthetic analogue of human GIP) [(A5c^11, Ado^43)hGIP(1-43)-OH], the Ki was 31.6 nM.

In the case of B11, the Ki stood at 0.69 nM.

In the case of B12, the Ki stood at 26.4 nM.

For B13, the inhibition constant Ki came to 0.51 nM.

In the case of B14, the Ki turned out to be 0.72 nM.

Regarding B15, the Ki was 0.59 nM.

B16: the Ki is 1.25 nM.

On to B17, for which the Ki is 41.6 nM.

With B18, the Ki came out at 5.3 nM.

On to B19, for which the Ki is 0.7 nM.

With B20, the Ki amounted to 0.6 nM.

Take B21: the Ki is 0.54 nM.

Turning to B22, the Ki came out at 3.13 nM.

B23: the Ki was determined as 3.43 nM.

Regarding B24, the Ki stood at 2.76 nM.

Turning to B25, the Ki is 0.21 nM.

Consider YAEGTF[Ac6c]SDYSIAMDKIHQQDFVNWLLAQK[Orn](Myristoyl)KKNDWKHNITQ-OH (Synthetic analogue of human GIP) [[A6c^7, Orn^31(N-C(O)-(CH2)12-CH3)]hGIP(1-42)-OH], for which the Ki was 18.1 nM.
